Source: article PMC7957560, “The Functional Role of Loops and Flanking Sequences of G-Quadruplex Aptamer to the Hemagglutinin of Influenza a Virus”

B1: RHA0385 (structured_DNA)
DNA: TTGGGGTTATTTTGGGAGGGCGGGGGTT
B2: G7nt-T_A_T (structured_DNA)
DNA: GGGTGGGAGGGTGGG
B3: G7-TTATTAA_A_C (structured_DNA)
DNA: TTGGGGTTATTAAGGGAGGGCGGGGGTT
B4: control oligonucleotide (ssDNA)
DNA: CGACGCACCATTTGTTTAATATGTTTTTTAATTCCCCTTGTGGTGCGTCG
B5: G7nt-T_T_T (structured_DNA)
DNA: GGGTGGGTGGGTGGG
B6: G7n5t (structured_DNA)
DNA: GGGTTATTTTGGGAGGGCGGGGGTT
B7: G7nt-A_T_T (structured_DNA)
DNA: GGGAGGGTGGGTGGG
B8: G7nt (structured_DNA)
DNA: GGGTTATTTTGGGAGGGCGGG
B9: G7-TTA_A_C (structured_DNA)
DNA: TTGGGGTTAGGGAGGGCGGGGGTT
B10: G7nt-T_T_A (structured_DNA)
DNA: GGGTGGGTGGGAGGG
B11: G7nt-A_A_A (structured_DNA)
DNA: GGGAGGGAGGGAGGG
B12: G7n3t (structured_DNA)
DNA: TTGGGGTTATTTTGGGAGGGCGGG

Key:
[1] = target: T1, recombinant hemagglutinin HA1 subunit (rHA, H5) (Influenza A virus A/Vietnam/1203/2004 …, UniProt Q5EP31 17-346); experiment: BLI; rHA immobilized; apparent KD; BLI at 30 C in sodium-potassium phosphate buffer pH 7.4 ([…]; settings: protein: commercial, label: none (rHA), 5'-biotin (vHA BLI)
[2] = target: T1, recombinant hemagglutinin HA1 subunit …; experiment: BLI; 50 nM control, reference signal; BLI at 30 C in sodium-potassium phosphate buffer pH 7.4 ([…]; settings: protein: commercial; label: none (rHA); 5'-biotin (vHA BLI)

Binder | Kd [1] [pM] | also measured
B1 | 600 ± 300 | 
B2 | 600 ± 200 | 
B3 |  | Kd ([1]; parallel G4, 77% monomer): 400 ± 200 pM
B4 |  | binding result [2]: no binding
B5 | 700 ± 200 | 
B6 |  | Kd ([1]; parallel G4, 74% monomer): 300 ± 200 pM
B7 | 400 ± 200 | 
B8 |  | Kd ([1]; parallel G4, 74% monomer): 700 ± 300 pM
B9 |  | Kd ([1]; parallel G4, 86% monomer): 400 ± 200 pM
B10 | 800 ± 200 | 
B11 | 600 ± 400 | 
B12 |  | Kd ([1]; parallel G4, 100% monomer): 400 ± 200 pM
